Here are results for one molecule from patent US10774132B2, “Ultralong complementarity determining regions and uses thereof” (THE SCRIPPS RESEARCH INSTITUTE, priority 2012, dated 2020).

This experiment deals with T1, CXCR1 (Homo sapiens, UniProt P25024).
T1 construct: host or cells: U2OS
T1 sequence (P25024 1-350): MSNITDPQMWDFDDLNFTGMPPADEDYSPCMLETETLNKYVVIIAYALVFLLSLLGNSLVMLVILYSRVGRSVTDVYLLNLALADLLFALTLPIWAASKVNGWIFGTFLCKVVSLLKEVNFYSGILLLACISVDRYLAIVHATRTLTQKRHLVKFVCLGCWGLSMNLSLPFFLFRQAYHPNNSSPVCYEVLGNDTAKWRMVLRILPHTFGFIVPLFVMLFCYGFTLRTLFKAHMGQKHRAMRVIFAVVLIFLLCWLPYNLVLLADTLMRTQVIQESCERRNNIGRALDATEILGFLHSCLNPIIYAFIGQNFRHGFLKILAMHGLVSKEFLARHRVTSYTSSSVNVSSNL
The experiment in a line: Flow cytometry binding to CXCR1-U2OS cells. The note with it: CXCR1-U2OS cells; cell culture supernatant; flow cytometry. The procedure:
Briefly, a cell line expressing functionally validated CXCR1 derived from U2OS cells was obtained from DiscoveRx and cultured per manufacturer's instructions (Cat #93-0226C3, DiscoveRx Corporation, Freemont, Calif.). The parental cell line U2OS was obtained from ATCC and cultured under the same conditions as the CXCR1 cells. Cell culture supernatants from Example 2 above were then tested for binding to cells by flow cytometry. The adherent U2OS or CXCR1-U2OS cells were dissociated with Accutase (Innovative Cell Technologies, Inc., San Diego, Calif.), neutralized with an equal volume of media containing 10% serum, centrifuged at 1000 g, and resuspended in PBS with 2% BSA. Next, cells were dispensed into microtiter plates to achieve between 30,000 to 300,000 cells per well, centrifuged again, and resuspended in cell culture supernatant containing expressed IgG, or a dilution of IgG-containing cell culture supernatant. A fluorescent-conjugated anti-Human Fc antibody was used to detect binding of the expressed BLV1H12-IL8 fusion proteins to cells.
For orientation: In flow cytometry, cells or beads pass a laser one at a time.

B1: Ab: bovine BLV1H12 antibody with ultralong CDR3, no insertion; scaffold of the fusions and control (antibody)
heavy: QVQLRESGPSLVKPSQTLSLTCTASGFSLSDKAVGWVRQAPGKALEWLGSIDTGGNTGYNPGLKSRLSITKDNSKSQVSLSVSSVTTEDSATYYCTSVHQETKKYQSCPDGYRERSDCSNRPACGTSDCCRVSVFGNCLTTLPVSYSYTYNYEWHVDVWGQGLLVTVSS
light: QAVLNQPSSVSGSLGQRVSITCSGSSSNVGNGYVSWYQLIPGSAPRTLIYGDTSRASGVPDRFSGSRSGNTATLTISSLQAEDEADYFCASAEDSSSNAVFGSGTTLTVLGQPKSPPSVTLFPPSTEELNGNKATLVCLISDFYPGSVTVVWKADGSTITRNVETTRASKQSNSKYAASSYLSLTSSDWKSKGSYSCEVTHEGSTVTKTVKPSECS
Consider B1, for which the “Median Arbitrary Fluorescence Units (IgG binding)” value was found to be 4 AFU.
